# In the supplement of paper PMC10567573:
# B1: IKZF1 (parent)
# chain: HIKLHSGEKPFKCHLCNYACRRRD
# B2: C9orf25 (parent)
# chain: LARKGSLKNGSMGSPVNQQPKKNN
# Variants of: B1
# Experiment: protein stability index of a GFP-peptide fusion (GPS, HEK-293T) (PSI 1-6); higher = more stable
# Conditions: c terminus: a fixed tail appended
# 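Note: lentivirally expressed fusions sorted by FACS into six bins by GFP to DsRed ratio, PSI derived from sequencing read proportions per bin multiplied by bin number.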
row,Variant,protein stability index
1,HIKLHSGEKPFKCHLCNTACRRRD,1.54
2,HIKLHSGEKPFKCHLCNWACRRRD,1.16
3,HIKLHSGEKPFKCHLCNYCCRRRD,1.64
4,HIKLHSGEKPFKCHLCNYDCRRRD,1.58
5,HIKLHSGEKPFKCHLCNYECRRRD,2.1
6,HIKLHSGEKPFKCHLCNYFCRRRD,2.07
7,HIKLHSGEKPFKCHLCNYGCRRRD,1.49
8,HIKLHSGEKPFKCHLCNYHCRRRD,1.85
9,HIKLHSGEKPFKCHLCNYICRRRD,2.13
10,HIKLHSGEKPFKCHLCNYKCRRRD,3.11
11,HIKLHSGEKPFKCHLCNYLCRRRD,2
12,HIKLHSGEKPFKCHLCNYMCRRRD,1.88
13,HIKLHSGEKPFKCHLCNYNCRRRD,2.27
14,HIKLHSGEKPFKCHLCNYPCRRRD,1.71
15,HIKLHSGEKPFKCHLCNYQCRRRD,1.67
16,HIKLHSGEKPFKCHLCNYRCRRRD,2.62
17,HIKLHSGEKPFKCHLCNYSCRRRD,1.94
18,HIKLHSGEKPFKCHLCNYTCRRRD,1.81
19,HIKLHSGEKPFKCHLCNYVCRRRD,1.4
20,HIKLHSGEKPFKCHLCNYWCRRRD,2.52
21,HIKLHSGEKPFKCHLCNYYCRRRD,1.32
22,HIKLHSGEKPFKCHLCNYAARRRD,2.41
23,HIKLHSGEKPFKCHLCNYADRRRD,1.59

row,Variant,protein stability index
1,HIKLHSGEKPFKCHLCNYAERRRD,1.83
2,HIKLHSGEKPFKCHLCNYAFRRRD,2.25
3,HIKLHSGEKPFKCHLCNYAGRRRD,1.96
4,HIKLHSGEKPFKCHLCNYAHRRRD,1.94
5,HIKLHSGEKPFKCHLCNYAKRRRD,1.64
6,HIKLHSGEKPFKCHLCNYALRRRD,1.63
7,HIKLHSGEKPFKCHLCNYAMRRRD,2.5
8,HIKLHSGEKPFKCHLCNYANRRRD,2.35
9,HIKLHSGEKPFKCHLCNYAPRRRD,3.08
10,HIKLHSGEKPFKCHLCNYAQRRRD,2.39
11,HIKLHSGEKPFKCHLCNYARRRRD,1.96
12,HIKLHSGEKPFKCHLCNYASRRRD,1.69
13,HIKLHSGEKPFKCHLCNYATRRRD,2.08
14,HIKLHSGEKPFKCHLCNYAVRRRD,2.89
15,HIKLHSGEKPFKCHLCNYAWRRRD,2.83
16,HIKLHSGEKPFKCHLCNYAYRRRD,1.86
17,HIKLHSGEKPFKCHLCNYACARRD,3.46
18,HIKLHSGEKPFKCHLCNYACCRRD,1.78
19,HIKLHSGEKPFKCHLCNYACDRRD,1.29
20,HIKLHSGEKPFKCHLCNYACERRD,2.27
21,HIKLHSGEKPFKCHLCNYACFRRD,2.22
22,HIKLHSGEKPFKCHLCNYACGRRD,2.41
23,HIKLHSGEKPFKCHLCNYACHRRD,2.27

row,Variant,protein stability index
1,HIKLHSGEKPFKCHLCNYACKRRD,2.19
2,HIKLHSGEKPFKCHLCNYACLRRD,1.59
3,HIKLHSGEKPFKCHLCNYACMRRD,1.79
4,HIKLHSGEKPFKCHLCNYACNRRD,1.65
5,HIKLHSGEKPFKCHLCNYACPRRD,2.39
6,HIKLHSGEKPFKCHLCNYACQRRD,1.15
7,HIKLHSGEKPFKCHLCNYACSRRD,1.99
8,HIKLHSGEKPFKCHLCNYACTRRD,2.38
9,HIKLHSGEKPFKCHLCNYACVRRD,1.3
10,HIKLHSGEKPFKCHLCNYACWRRD,1.49
11,HIKLHSGEKPFKCHLCNYACYRRD,1.58
12,HIKLHSGEKPFKCHLCNYACRARD,1.68
13,HIKLHSGEKPFKCHLCNYACRCRD,1.87
14,HIKLHSGEKPFKCHLCNYACRDRD,1.76
15,HIKLHSGEKPFKCHLCNYACRERD,1.95
16,HIKLHSGEKPFKCHLCNYACRFRD,2.03
17,HIKLHSGEKPFKCHLCNYACRGRD,1.5
18,HIKLHSGEKPFKCHLCNYACRHRD,2.71
19,HIKLHSGEKPFKCHLCNYACRIRD,1.7
20,HIKLHSGEKPFKCHLCNYACRKRD,1.95
21,HIKLHSGEKPFKCHLCNYACRLRD,1.72
22,HIKLHSGEKPFKCHLCNYACRMRD,1.87
23,HIKLHSGEKPFKCHLCNYACRNRD,1.2

row,Variant,protein stability index
1,HIKLHSGEKPFKCHLCNYACRPRD,1.86
2,HIKLHSGEKPFKCHLCNYACRQRD,2.2
3,HIKLHSGEKPFKCHLCNYACRSRD,2.97
4,HIKLHSGEKPFKCHLCNYACRTRD,2.5
5,HIKLHSGEKPFKCHLCNYACRVRD,1.91
6,HIKLHSGEKPFKCHLCNYACRWRD,3.09
7,HIKLHSGEKPFKCHLCNYACRYRD,2.05
8,HIKLHSGEKPFKCHLCNYACRRAD,2.13
9,HIKLHSGEKPFKCHLCNYACRRCD,2.27
10,HIKLHSGEKPFKCHLCNYACRRDD,2.18
11,HIKLHSGEKPFKCHLCNYACRRED,1.8
12,HIKLHSGEKPFKCHLCNYACRRFD,2.36
13,HIKLHSGEKPFKCHLCNYACRRGD,2.04
14,HIKLHSGEKPFKCHLCNYACRRHD,2.12
15,HIKLHSGEKPFKCHLCNYACRRID,2
16,HIKLHSGEKPFKCHLCNYACRRKD,2.26
17,HIKLHSGEKPFKCHLCNYACRRLD,1.44
18,HIKLHSGEKPFKCHLCNYACRRMD,2.4
19,HIKLHSGEKPFKCHLCNYACRRND,1.63
20,HIKLHSGEKPFKCHLCNYACRRPD,2.02
21,HIKLHSGEKPFKCHLCNYACRRQD,1.71
22,HIKLHSGEKPFKCHLCNYACRRSD,1.87
23,HIKLHSGEKPFKCHLCNYACRRTD,1.48

row,Variant,protein stability index
1,HIKLHSGEKPFKCHLCNYACRRVD,2.4
2,HIKLHSGEKPFKCHLCNYACRRWD,2.21
3,HIKLHSGEKPFKCHLCNYACRRYD,1.72
4,HIKLHSGEKPFKCHLCNYACRRRA,2.29
5,HIKLHSGEKPFKCHLCNYACRRRC,2.22
6,HIKLHSGEKPFKCHLCNYACRRRE,1.99
7,HIKLHSGEKPFKCHLCNYACRRRF,2.54
8,HIKLHSGEKPFKCHLCNYACRRRG,2.04
9,HIKLHSGEKPFKCHLCNYACRRRH,2.06
10,HIKLHSGEKPFKCHLCNYACRRRI,2.89
11,HIKLHSGEKPFKCHLCNYACRRRK,2.48
12,HIKLHSGEKPFKCHLCNYACRRRL,2.01
13,HIKLHSGEKPFKCHLCNYACRRRM,1.97
14,HIKLHSGEKPFKCHLCNYACRRRN,1.76
15,HIKLHSGEKPFKCHLCNYACRRRP,2.09
16,HIKLHSGEKPFKCHLCNYACRRRQ,1.73
17,HIKLHSGEKPFKCHLCNYACRRRR,2.22
18,HIKLHSGEKPFKCHLCNYACRRRS,1.43
19,HIKLHSGEKPFKCHLCNYACRRRT,2.31
20,HIKLHSGEKPFKCHLCNYACRRRV,2.39
21,HIKLHSGEKPFKCHLCNYACRRRY,1.9

# Variants of: B2
# Experiment: as above
# Conditions: c terminus: a fixed tail appended
row,Variant,protein stability index
1,AARKGSLKNGSMGSPVNQQPKKNN,5.34
2,CARKGSLKNGSMGSPVNQQPKKNN,4.32
3,DARKGSLKNGSMGSPVNQQPKKNN,5.07
4,EARKGSLKNGSMGSPVNQQPKKNN,5.35
5,FARKGSLKNGSMGSPVNQQPKKNN,3.96
6,GARKGSLKNGSMGSPVNQQPKKNN,5.15
7,HARKGSLKNGSMGSPVNQQPKKNN,4.95
8,IARKGSLKNGSMGSPVNQQPKKNN,4.66
9,KARKGSLKNGSMGSPVNQQPKKNN,4.76
10,MARKGSLKNGSMGSPVNQQPKKNN,4.89
11,NARKGSLKNGSMGSPVNQQPKKNN,5.07
12,PARKGSLKNGSMGSPVNQQPKKNN,4.76
13,QARKGSLKNGSMGSPVNQQPKKNN,4.85
14,RARKGSLKNGSMGSPVNQQPKKNN,4.81
15,SARKGSLKNGSMGSPVNQQPKKNN,5.53
16,TARKGSLKNGSMGSPVNQQPKKNN,4.31
17,VARKGSLKNGSMGSPVNQQPKKNN,4.92
18,WARKGSLKNGSMGSPVNQQPKKNN,4.3
19,YARKGSLKNGSMGSPVNQQPKKNN,3.77
20,LCRKGSLKNGSMGSPVNQQPKKNN,4.12
21,LDRKGSLKNGSMGSPVNQQPKKNN,4.87
22,LERKGSLKNGSMGSPVNQQPKKNN,5.09
23,LFRKGSLKNGSMGSPVNQQPKKNN,4.04
24,LGRKGSLKNGSMGSPVNQQPKKNN,4.76
25,LHRKGSLKNGSMGSPVNQQPKKNN,4.77

row,Variant,protein stability index
1,LIRKGSLKNGSMGSPVNQQPKKNN,4.37
2,LKRKGSLKNGSMGSPVNQQPKKNN,4.13
3,LLRKGSLKNGSMGSPVNQQPKKNN,4.58
4,LMRKGSLKNGSMGSPVNQQPKKNN,4.9
5,LNRKGSLKNGSMGSPVNQQPKKNN,4.59
6,LPRKGSLKNGSMGSPVNQQPKKNN,5.21
7,LQRKGSLKNGSMGSPVNQQPKKNN,4.63
8,LRRKGSLKNGSMGSPVNQQPKKNN,3.68
9,LSRKGSLKNGSMGSPVNQQPKKNN,4.72
10,LTRKGSLKNGSMGSPVNQQPKKNN,4.54
11,LVRKGSLKNGSMGSPVNQQPKKNN,4.07
12,LWRKGSLKNGSMGSPVNQQPKKNN,4.03
13,LYRKGSLKNGSMGSPVNQQPKKNN,4.24
14,LAAKGSLKNGSMGSPVNQQPKKNN,5.05
15,LACKGSLKNGSMGSPVNQQPKKNN,4.85
16,LADKGSLKNGSMGSPVNQQPKKNN,5.2
17,LAEKGSLKNGSMGSPVNQQPKKNN,4.69
18,LAFKGSLKNGSMGSPVNQQPKKNN,4.54
19,LAGKGSLKNGSMGSPVNQQPKKNN,5.02
20,LAHKGSLKNGSMGSPVNQQPKKNN,4.85
21,LAIKGSLKNGSMGSPVNQQPKKNN,4.58
22,LAKKGSLKNGSMGSPVNQQPKKNN,4.33
23,LALKGSLKNGSMGSPVNQQPKKNN,4.41
24,LAMKGSLKNGSMGSPVNQQPKKNN,4.85
25,LANKGSLKNGSMGSPVNQQPKKNN,4.96

row,Variant,protein stability index
1,LAPKGSLKNGSMGSPVNQQPKKNN,5.03
2,LAQKGSLKNGSMGSPVNQQPKKNN,4.99
3,LASKGSLKNGSMGSPVNQQPKKNN,4.67
4,LATKGSLKNGSMGSPVNQQPKKNN,4.85
5,LAVKGSLKNGSMGSPVNQQPKKNN,4.85
6,LAWKGSLKNGSMGSPVNQQPKKNN,4.14
7,LAYKGSLKNGSMGSPVNQQPKKNN,4.73
8,LARAGSLKNGSMGSPVNQQPKKNN,4.74
9,LARCGSLKNGSMGSPVNQQPKKNN,4.74
10,LARDGSLKNGSMGSPVNQQPKKNN,4.88
11,LAREGSLKNGSMGSPVNQQPKKNN,4.91
12,LARFGSLKNGSMGSPVNQQPKKNN,5.08
13,LARGGSLKNGSMGSPVNQQPKKNN,5.17
14,LARHGSLKNGSMGSPVNQQPKKNN,4.68
15,LARIGSLKNGSMGSPVNQQPKKNN,3.71
16,LARLGSLKNGSMGSPVNQQPKKNN,4.23
17,LARMGSLKNGSMGSPVNQQPKKNN,4.62
18,LARNGSLKNGSMGSPVNQQPKKNN,4.25
19,LARPGSLKNGSMGSPVNQQPKKNN,4.92
20,LARQGSLKNGSMGSPVNQQPKKNN,3.95
21,LARRGSLKNGSMGSPVNQQPKKNN,3.74
22,LARSGSLKNGSMGSPVNQQPKKNN,4.68
23,LARTGSLKNGSMGSPVNQQPKKNN,5
24,LARVGSLKNGSMGSPVNQQPKKNN,4.42
25,LARWGSLKNGSMGSPVNQQPKKNN,4.15
